Results from US20040018515.

With Mek 6 the “initial rate of fluorescence increase (535 nm) of the ADP NASM FRET assay, reporting ADP yield from ATP hydrolysis” value (p386) was “substantially enhanced fluorescence was observed (Table 17, shaded cells; 150-300 RFU/min)”.

With Mek1 the “initial rate of fluorescence increase (535 nm) of the ADP NASM FRET assay, reporting ADP yield from ATP hydrolysis” value (Erk2) was “substantially enhanced fluorescence was observed (Table 17, shaded cells; 150-300 RFU/min)”.
